Experimental data taken from US20070036750A1.

Legend:
[1] = target: human CCR2 (full-length, Genbank Accession No. NM-000648) on membranes of Ba/F3-hCCR2 cells (human) (UniProt P41597); assay: competition with 30 pM radioiodinated human MCP1, SPA, Ba/F3-hCCR2 cell membranes
[2] = target: human CCR2 (full-length, Genbank Accession No. NM-000648) on membranes of Ba/F3-hCCR2 cells (human) (UniProt P41597); assay: competition with radioiodinated human MCP1, SPA, membranes of cells containing CCR2

Row | IC50 [1] | Ki [1] | fold less potent than unlabeled rhMCP1 [2] | Substance
1 | 0.183 nM | 0.0845 nM | – | Recombinant human MCP1 (rhMCP1) (R & D Systems) (from UniProt P13500 24-99) (ligand)
2 | 0.624 nM | 0.287 nM | 5 to 12 fold | hMCP1-mIg (NH2-human MCP1-Mouse Ig Heavy chain γ1 (hinge-CH2-CH3)-COOH) (Fc fusion)
